Substrate in this data set: [O-][Cl+]O
Briefly: Clark-type O2 electrode, initial rates. Conditions: pH 5.2, 4 °C, 100 mM citrate-phosphate. The format is biochemical, Dechloromonas aromatica (nom. nud.).

As a reminder, the Km is the concentration of substrate that gives half-maximal velocity. A word on the kcat: it is the number of substrate molecules converted per active site and unit of time at saturation. As usually defined, the kcat/Km is the turnover number divided by the Michaelis constant.

B1: Chlorite dismutase (Cld) (Dechloromonas aromatica RCB) (protein)
chain: MQPMQSMKIERGTILTQPGVFGVFTMFKLRPDWNKVPVAERKGAAEEVKKLIEKHKDNVLVDLYLTRGLETNSDFFFRINAYDLAKAQTFMREFRSTTVGKNADVFETLVGVTKPLNYISKDKSPGLNAGLSSATYSGPAPRYVIVIPVKKNAEWWNMSPEERLKEMEVHTTPTLAYLVNVKRKLYHSTGLDDTDFITYFETDDLTAFNNLMLSLAQVKENKFHVRWGSPTTLGTIHSPEDVIKALAD
For the protein B1, the Km came to 620 ± 70 µM, the kcat worked out at 20000 ± 6000 s⁻¹ and the catalytic efficiency (kcat/Km) is 3.2e+07 ± 4e+06 M⁻¹ s⁻¹.

(Values after publication PMC3050645.)
